Data published in the RNAGym collection of RNA variant scans (doi:10.1073/pnas.2313332121).

B1: TPR t1 (parent)
chain: GACCAAUCUGCCCUCAGAGCUCGAGAACAUCUUCGGAUGCAGAGGAGGCAGGCUUCGGUGGCGCGAUAGCGCCAACGUCCUCAACCUCCAAUGCAUCCCACCACAUGAUGAUGCCUGAAGAGCCUUGGUUUUUUG

Variants of: B1
Experiment: polymerase ribozyme fitness, log enrichment relative to wild type (log ratio); higher = more active; in vitro selection for triplet polymerase activity
Summary of the method: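 To select mutant libraries of each subunit of a heterodimeric triplet polymerase ribozyme, built by PCR and transcribed, each was annealed with a biotinylated primer, partner subunit and triplets, then incubated frozen at −7 °C. Extended constructs were gel-excised, captured on streptavidin beads and amplified by RT-PCR, in one round carried out in triplicate. Illumina sequencing of input and output libraries kept genotypes with ≥10 input reads and ≥1 read per output. Fitness is the base-2 logarithm of genotype enrichment relative to wild-type enrichment, from inverse-variance-weighted replicate averages.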

Row | Variant | polymerase ribozyme fitness (log ratio)
1 | GACCAAUCUGCCCUCAGAGCUCGAGAACAUCUUCGGAUGCUGAGGAGGCAGGCUUCGGUGGCACGAUAGCGCCAACGUCCUCAACCUCCAAUGCAUCCCACCACAUGAUGAUGCCUGAAGAGCUUUGGUUUUUUG [A41U G63A C124U] | -1.14
2 | GACCAAUCUGCCCUCAGAGCUCGAGAACAUCUUCGGAUGCAGAGGAGGCAGGCUUCGGUGGCGCGAUAGGGCCAACGUCCUCAACCUCCCAUGCAUCCCACCACAUGAUGAUGCCUGAAGAGCCUUGGUUUUUUG [C70G A90C] | -4.87
3 | GACCAAUCUGCCCUCAGAGCUCGAGAACAUCUUCGGAUGCAGAGGAGGCAGGCUUAGGUGGCGCGAUAGCGCCAACGUCCUAAACCUUCAAUGCAUCCCACCACAUGAUGAUGCCUGAAGAGCCUUGGUUUUUUG [C56A C82A C88U] | -0.846
4 | GACCAAUCUGCCCUCAGAGCUCGAGAACAUCUUCGGAUGCAGAGGAGGCAGGAUUCGGUGGCGCGAUAGCGCCAACGUCCUCAACCUCCAAUGAAUCCCACCACAUGAUGACGCCUGAAGAGCCUUGGUUUUUUG [C53A C94A U112C] | 1.14
5 | GACCAAUCUGCCCUCAGAGCUCGAGAACAUCUUCGGAUGCAGAGGAUGCAGGCUUCGGUGGCGCGAUAGCGCCAACGUCCUCAACCUCCAAUGCAUCCCACCACAUGAUGACGCCUGAAGAGCCUUGGUUUUUUG [G47U U112C] | -0.538
6 | GACCAAUCUACCCUCAGAGCUCGAGAACAUCUUCGGAUGCAGAGGAUGCAGGCUUCGGUGGCGCGAUAGCGCCAACGUCCUCGACCUCCAAUGCAUCCCACCACAUGAUGAUGCCUGAAGAGCCUUGGUUUUUUG [G10A G47U A83G] | -2.7
7 | GACCAAUCUGUCCUCAGAGCUCGAGAACAUCUUCGGAUGCAGAGGAGGCAGGCUUCGGUGGCGCGAUAGCGCCAACGUCCUUAACCUCCAAUGCAUCCCACCAAAUGAUGAAGCCUGAAGAGCCUUGGUUUUUUG [C11U C82U C104A U112A] | 0.128
8 | GACCAAUCUGGCAUCAGAGCUCGAGAACAUCUUCGGAUGCAGAGGAGGCAGGCUUCGGUGGCGCGAUAGCGCCAACGUCCUCAACCUCCAAUGCAUCCCACCACAUGAUGAUGCCUGAAGAGCCUUGGUUUUUUG [C11G C13A] | -2.58
9 | GACCAAUGUGCCCUCAGAGCUCGAGAACAUCUUCGGAUGCAGAGGAGGCAGGCUUCGGUGGCGCGAUAGCGCCAACGUCCUCAACCUCCAAUGCAUCCCACCACAUGAUGAUGCGUGAAGAGCCUUGGUUUUUUG [C8G C115G] | 1.06
10 | GACCAAUCUGCCCUGAGAGCUCGAGAACAUCUUCGGAUGCAGAGGAGGCAGGCUUCGGUGGCGCGAUAGCACCAACGUCCUCAACCUCCGAUGCAUCCCACCACAUGAUGAUGCCUGAAGAGCCUUGGUUUUUUG [C15G G71A A90G] | -3.09
11 | GACCAAUCUGCCCUCAGAGCUCGAGAACAUCUUCGGAUGCAGAGGAGGCAGGCUUAGGUGGGGCGAUAGCGCCAACGUCCUCAACCUUCAAUGCAUCCCACCACAUGAUGAUGCCUGAAGAGCCUUGGUUUUUUG [C56A C62G C88U] | -3.82
12 | GACCAAUCUGCCCUCAGAGCUCGAGAACAUCUUCGGAUGCAGAGGAGGCAGGCUUUGGUGGCGUGAUAGCGCCGACGUCCUCAACCUCCAAUGCAUCCCACCACAUGAUGAUGCCUGAAGAGCCUUGGUUUUUUG [C56U C64U A74G] | -3.32
13 | GACCAAUCUGCCCUCAGAGCUCGAGAACAUCUUCGGAUGCAGAGGAGGCAGGCUUCGGUGGAGCGAUAGCGCCAACGUCCGCAACCUCCAAUGCAUCCCACCACAUGAUGAUGCCUGAAAAGCCUUGGUUUUUUG [C62A U81G G120A] | -4.65
14 | GACCAAUCUGCCCUCAGAGCUCGAGAACAUCUUCGGAUGCAGAGGAGGGUGGCUUCGGUGGCGCGAUAGCGCCAACGUCCUCAACCUCCAAUGCAUCCCACCACAUGAUGAUGCCUGAAGAGCCUUGGUUUUUUG [C49G A50U] | -1.05
15 | GACCAAUCUGCCCUCAGAGCUCGAGAACAUCUUCGAAUGCAGAGGAGGCAGGCUUCGGUGGCGCGAUAGCGCAAACGUCCUCAACCUCCAAUGCAUCCCACCACAUGAUGAUGCCUGAAGAGCCUUGGUUUUUUG [G36A C73A] | -1.1
16 | GACCAAUCUGCCCUCCGCGCUCGAGAACAUCUUCGGAUGUAGAGGAGGCAGGCUUCGGUGGCGCGAUAGCUCCAACGUUCUCAACCUCCAAUGCAUCCCACCACAUGAUGAUGCCUGAAGAGCCUUGGUUUUUUG [A16C A18C C40U G71U C79U] | -5.22
17 | GACCAAUCUGCCCUCAGAGCUCGAGAAAAUCUUCGGAUGCAGAGGAGGCAGGCUUCGGUGGCGCGAUGGCGCCUACGUCCUCAACCUCCAAUACAUCCCACCACAUGAUGAUGGCUGAAGAGCCUUGGUUUUUUG [C28A A68G A74U G93A C114G] | -7.51
18 | GACCAAUCUGCCCUCAGAGCUCGAGAACAUCUUCGGAUGCAGAGGAGGCAGGCUUCGGUGGCGCGAUAGCGCCAACGUCCUGAACCUCCAAUGCAUCCCACCACAAGAUGAUGCCUGAAGAGCCUUGGUUUUUUG [C82G U106A] | -0.594
19 | GACCAAUCUGCACUCAGAGCUCGAGAACAUCUUCGGAUGCAGAGGAGGCAGGCUUCGGUGACGCGAUAGCGCCAACGUCCUCAACCUCCAAUGCAUCCCACCACAUGAUGAUGCCUGAAGAGCCUUGGUUUUUUG [C12A G61A] | -0.687
20 | GACCAAUAUGCCCUCAGAGCUCGAGAACAUCUUCGGAUGCAGAGGAGGCAGGCUUCGAUAGCGCGAUAGCGCCAACGUCCUCAACCUCCAAUGCAUCCCACCACAUGAUGAUGCCUGAAGAGCCUUGGUUUUUUG [C8A G58A G60A] | -0.486
21 | GACCAAUCUGCCCUCAGAGCUCGAGAACAUCUUCGGUUGCAGAGGAGGCAGGCUUCGGUGGCGCGAUAGCGCCAACGUCCUCAACCUCCGAUGCAUACCACCACAUGAUGAUGCCUGAAGAGCCUUGGUUUUUUG [A37U A90G C97A] | -5.5
